Here are results for one molecule from US9850300B2, “Compositions and methods relating to inhibiting cancer cell growth and/or proliferation” (The Regents of the University of Michigan, priority 2013, dated 2017).

Assay [1] has as its system SKOV3, OVCAR3, OVCAR8, and primary ovarian tumor cells. Description: EGFL6 treatment of ovarian cancer cells, total cell number. It counts as cell-based. The text has this:
EGFL6 was next expressed in HEK293 cells, NIH3T3 cells, and SKOV3 ovarian cancer cells. Western blot analysis confirmed secretion of EGLF6 in both transient and stable transfectants (FIG. 2Ai, 2D) from all three cell lines. EGFL6 protein was purified to >95% purity (FIG. 2Aii) and treated ovarian cancer cells with either purified EGFL6, supernatant from EGFL6-expressing HEK293 cells, or supernatant from control transfected HEK293 cells. Purified fusion protein and supernatant from EGFL6 transfected cells had similar effects. EGFL6 treatment of SKOV3, OVCAR3, OVCAR8, and primary ovarian tumor cells was associated with a 30-40% increase in total cell number (FIG. 2B).
SKOV3, A2008, and A2780 were maintained in RPMI-1640, supplemented with 10% FBS with 1% Penicillin/Streptomycin, and cultured in humidified atmosphere of 5% CO2 at 37° C. For all in vitro cell culture experiments, isolated cells were allow to recover overnight following FACS, prior to treatment. Infantile Hemangioma Stem cells were maintained in EBM-2 medium with growth factor supplement cocktails in culture plates coated with fibronectin. For Echistatin and EGFL6 treatment, cells were pretreated with Echistatin (Sigma, 100 nM) for 24 hours prior to EGFL6 treatment. All transfections were performed using FuGene6 reagent (Promega) per company protocol. […]

Assay [2] concerns cellular migration. Briefly: In vitro scratch test wound healing assay. The conditions noted are these: EGFL6 treated cells. It counts as cell-based.
Assay [3] deals with cellular migration. Briefly: Transwell migration assay with EGFL6 protein as chemoattractant. The class given is cell-based.
For assay [4], the system named is primary ALDH+ and ALDH(−) cells. Description: Single cell microfluidic culture, cell division type. The class given is cell-based, human. The source says:
For primary cells, it was observed that over 50% of untreated ALDH^(−) cells underwent no division over 5 days, while remaining cells underwent symmetric division. […] 20% of ALDH^+ cells underwent no division. EGFL6 treatment of primary ALDH^+ cells was associated with a 1.9-fold increase in the number of ALDH^+ cells undergoing asymmetric division (FIG. 3Dii). EGFL6 treatment was associated with an increase in total cell numbers (90 EGFL6 treated cells yielded 585 total cells while 82 mock-treated cells yielded 451 cells).
Informed consent was obtained from all patients before tissue procurement. All studies were performed with the approval of the Institutional Review Board of the University of Michigan. All tumors were stage III or IV epithelial ovarian or primary peritoneal cancer. Tumors were mechanically dissected into single-cell suspensions and isolated on a ficoll gradient as previously described (see, e.g., Pulaski, H. L., et al. J Transl Med 7, 49 (2009)). For ascites, cell pellets were collected by centrifugation; red cells were lysed using ACK buffer (Lonza, Hopkinton, Mass.), washed, passed through a 40-μm filter, then passed 4 times through a Standard Hub Pipetting needle to isolate single cells (see, e.g., Silva, I. A., et al. Cancer Res (2011)).

The subject of assay [5] is ALDH+ and ALDH(−) SKOV3 cells. The description is as above. The class given is cell-based. Here is the method: To determine if EGFL6 is promoting asymmetric division, a novel microfluidic culture device was used which allows the isolation, confirmation, and culture of individual cells. ALDH^+ and ALDH^(−) SKOV3 cells were FACS-sorted into separate microfluidic devices (see, e.g., Chung, J., Kim, Y. J. & Yoon, E. Appl Phys Lett 98, 123701 (2011)), and confirmed ALDH expression with fluorescent microscopy (FIG. 3Di). Cells were then mock-treated or treated with EGFL6. After 48 hours, live cells were stained using ALDEFLUOR and re-imaged using fluorescent microscopy (FIG. 3Dii, right panels). Cell divisions, type of daughter cell (ALDH^(−) or ALDH^+), and total cell number were assessed. […] Production of ALDH^+ daughter cells from ALDH^(−) cells was not observed. […] This was associated with a statistically significant increase in total cell numbers; 6.5 versus 3.7 average cells/well and total 325 vs. 185 total cells/50 captured cells in EGFL6 treated and control ALDH^(+) cells respectively.

Where [6] appears, read: ALDH+ SKOV3 cells, EGFL6 treated.

B1: EGFL6: recombinant EGFL6-flag protein from transfected HEK293 cells, used purified or as 72 hr supernatant (protein)
chain: NAASARHHGLLASARQPGVCHYGTKLACCYGWRRNSKGVCEATCEPGCKFGECVGPNKCRCFPGYTGKTCSQDVNECGMKPRPCQHRCVNTHGSYKCFCLSGHMLMPDATCVNSRTCAMINCQYSCEDTEEGPQCLCPSSGLRLAPNGRDCLDIDECASGKVICPYNRRCVNTFGSYYCKCHIGFELQYISGRYDCIDINECTMDSHTCSHHANCFNTQGSFKCKCKQGYKGNGLRCSAIPENSVKEVLRAPGTIKDRIKKLLAHKNSMKKKAKIKNVTPEPTRTPTPKVNLQPFNYEEIVSRGGNSHGGKKGNEEKMKEGLEDEKREEKALKNDIEERSLRGDVFFPKVNEAGEFGLILVQRKALTSKLEHKDLNISVDCSFNHGICDWKQDREDDFDWNPADRDNAIGFYMAVPALAGHKKDIGRLKLLLPDLQPQSNFCLLFDYRLAGDKVGKLRVFVKNSNNALAWEKTTSEDEKWKTGKIQLYQGTDATKSIIFEAERGKGKTGEIAVDGVLLVSGLCPDSLLSVDD
In the case of B1, the “increase in total cell number” value in assay [1] (EGFL6 treatment vs control supernatant) was 30-40%. Further, in assay [1] (increasing concentrations of EGFL6), the total cell numbers entry is on record as “increasing total cell numbers”. Also, the “increase in the rate of wound closure” value with cellular migration [2] came to 40%. The “cellular migration in transwell assay” value with cellular migration [3] was “increased cellular migration”. In assay [4] (from 90 EGFL6 treated primary cells), this molecule gave a total cells yielded of 585 total cells. Moreover, the “symmetric divisions of ALDH(−) cells” value in assay [4] (primary ALDH(−) cells, 5 days) is listed as “non-statistically significant increase”. The “increase in the number of ALDH+ cells undergoing asymmetric division” value in assay [4] (primary ALDH+ cells) is reported as 1.9 fold. Besides, in assay [5] (ALDH(−) SKOV3 cells, 48 hours), the “number or type of cell divisions of ALDH(−) cells” value is recorded as “no significant impact”. For the same molecule, the “increase in the percentage of ALDH+ cells undergoing asymmetric division” value in assay [5] (ALDH+ SKOV3 cells, 48 hours, vs mock-treated) is on record as 2 fold. Moreover, in assay [5] (setting [6]), the average cells/well amounted to 6.5 cells/well and the “total cells/50 captured cells” value is recorded as 325 total cells/50 captured cells.
